Source: patent US20260001914A1, “MACROCYCLIC PEPTIDES TARGETING KRAS” (Merck Sharp & Dohme LLC, priority 2022, published 2026)
Where “and” joins values, the source holds several entries; their conditions need not be identical. Equal entries are not always repeated.

Target: Biotin-labeled KRAS-G12D protein (UniProt P01116-2 1-169, limits assumed, biotin label (site not stated); loaded with BODIPY-GDP)
Assay: cell-based or functional assay

| Substance | SOS assay EC50 |
| --- | --- |
| cyclo(1Nal-R-Phe4CH2NHAc-Nle-Y-Nle-NMeF-daMeC-C1Ac) (peptide) | 7030 nM |
| cyclo(1Nal-R~Phe4Gn-Nle-Y-Nle-NMeF-daMeC-C1Ac) (peptide) | 575 nM |
| cyclo(C1Ac-F-R-3Pal-cBuA-Hag-Nle-NMe3Pal-C) (peptide) | 9150 nM |
| cyclo(F-ArgMeMe-Phe4Gn-L-TyrOMe-Nle-NMeF-dC1-C1Ac) (peptide) | 1160 nM |
| cyclo(F-DabN3-3Pal-Nle-Phe2F-Nle-NMe3Pal-c3amCb1c) (peptide) | 830 nM |
| cyclo(F-MorNva-3Pal-cBuA-Phe2F-Nle-NMe3Pal-amBCP) (peptide) | 432 nM |
| cyclo(F-NMeDabN3-3Pal-Nle-Phe2F-Nle-NMe3Pal-amBCP) (peptide) | 267 nM |
| cyclo(F-NMeNvalmid-3Pal-Nle-Phe2F-LysN3-NMe3Pal-c3amCblc) (peptide) | 612 nM |
| cyclo(F-NMeNvalmid-3Pal-Nle-Phe2F-Nle-NMe3Pal-tamcPr) (peptide) | 272 nM |
| cyclo(F-NMeR-3Pal-Nle-TyrOMe-Nle-NMeF-c3amCblc) (peptide) | 96.2 nM |
| cyclo(F-NMeR-d3Pal-NMeNle-Phe2F-Nle-NMe3Pal-amBCP) (peptide) | 1200 nM |
| cyclo(F-NO2IMNva-d3Pal-cBuA-Phe2F-Nle-NMe3Pal-amBCP) (peptide) | 242 nM |
| cyclo(F-OmN3-3Pal-Nle-Phe2F-Nle-NMe3Pal-c3amCblc) (peptide) | 5590 nM |
| cyclo(F-R-3Pal-Nle-I-Nle-NMe3Pal-aMeC1-C1Ac) (peptide) | 642 nM |
| cyclo(F-R-3Pal-Nle-Phe2F-Nle-NMe3Pal-aMeC7-C1Ac) (peptide) | 728 nM |
| cyclo(F-R-3Pal-Nle-TyrOMe-Nle-NMeF-13amCb1c) (peptide) | 186 nM |
| cyclo(F-R-3Pal-Nle-TyrOMe-Nle-NMeF-bhcLeu) (peptide) | 193 nM |
| cyclo(F-R-3Pal-Nle-V-Nle-NMe3Pal-aMeC1-C1Ac) (peptide) | 329 nM |
| cyclo(F-R-3Pal-Nle-all-Nle-NMe3Pal-aMeC1-C1Ac (peptide) | 946 nM |
| cyclo(F-R-3Pal-cBuA-AbuF3-Nle-NMeF-aMeC1-C1Ac) (peptide) | 861 nM |
| cyclo(F-R-3Pal-cBuA-Phe2F-Nle-NMeF-aMeC1-C1Ac) (peptide) | 2 nM |
| cyclo(F-R-3Pal-cBuA-Phe24F2-Nle-NMe3Pal-aMeC1-C1Ac) (peptide) | 1.35 nM |
| cyclo(F-R-3Pal-cBuA-SerOMe-Nle-NMeF-aMeC1-C1Ac) (peptide) | 943 nM |
| cyclo(F-R-3Pal-cBuA-TyrOMe-124triazole-dC~C1Ac) (peptide) | 2820 nM |
| cyclo(F-R-3Pal-cBuA-TyrOMe-AheNMeAhe-aMeC-C1Ac) (peptide) | 900 nM |
| cyclo(F-R-3Pal-cBuA-TyrOMe-AheNMeHag-aMeC-C1Ac) peak 1 (peptide) | 1560 nM and 324 nM |
| cyclo(F-R-3Pal-cBuA-TyrOMe-AheNMeHag-aMeC-C1Ac) peak 2 (peptide) | 650 nM |

| Substance | SOS assay EC50 |
| --- | --- |
| cyclo(F-R-3Pal-cBuA-TyrOMe-Nle-NMeF-amBCP) (peptide) | 5.47 nM |
| cyclo(F-R-3Pal-cBuA-TyrOMe-Nle-NMeF-spiro44) (peptide) | 7340 nM |
| cyclo(F-R-3Pal-cBuA-TyrOMe-RdHagNMeHag-aMeC-C1Ac) (peptide) | 299 nM |
| cyclo(F-R-4CF33Pal-cBuA-Phe2F-Nle-NMe3Pal-aMeC1-C1Ac) (peptide) | 1.59 nM |
| cyclo(F-R-4F3Pal-cBuA-Phe2F-Nle-NMe3Pal-daMeC1-C1Ac) (peptide) | 1.26 nM |
| cyclo(F-R-Phe4Gn-Nle-TyrOMe-Nle-NMeF-acBu) (peptide) | 13.8 nM |
| cyclo(F-R-Phe4Gn-Nle-TyrOMe-Nle-NMeF-cBuAc) (peptide) | 419 nM |
| cyclo(F-R-Phe4cMph-Nle-TyrOMe-Nle-NMeF-c3amCblc) (peptide) | 60.6 nM |
| cyclo(F-R-PyrimAla-cBuA-Phe2F-Nle-NMe3Pal-aMeC1-C1Ac) (peptide) | 0.998 nM |
| cyclo(F-R-d3Pal-cBuA-Phe2F-Nle-NMe3Pal-BCP) (peptide) | 1140 nM |
| cyclo(F-R-hK-Nle-Bip-hY-NMeF-Cysteamine-C1Ac) (peptide) | 4490 nM |
| cyclo(F-R~3Pal-cBuA-Phe26F2-Nle-NMe3Pal-aMeC1-C1Ac) (peptide) | 4.6 nM |
| cyclo(F-baceNva-d3Pal-cBuA-Phe2F-Nle-NMe3Pal-amBCP) (peptide) | 7.56 nM |
| cyclo(INal-R-4Pal-L-TyrOMe-Nva-NMeF-dC1-C1Ac) (peptide) | 935 nM |
| cyclo(INal-R-K-Nle-Phe3AcOH-Nle-NMeF-Cysteamine-C1Ac) (peptide) | 2650 nM |
| cyclo(NMeF-NMeNvaImid-3Pal-Nle-Phe2F-Nle-NMe3Pal-tamcPr) (peptide) | 7650 nM |
| cyclo(NMeF-NMeNvaImid-Phe4cPyrr-Nle-Phe2F-Nle-NMe3Pal-amBCP) (peptide) | 3220 nM |
| cyclo(NMeF-NMeNvalmid-3Pal-Nle-Phe2F-Nle-NMe3Pal-c3amCblc) (peptide) | 1220 nM |
| cyclo(Phe4F-R-4Pal-L-TyrOMe-Nva-NMeF-dC1-C1Ac) (peptide) | 1170 nM |
| cyclo(Phe4F-R-4Pal-L-TyrOMe-Nva-NMeF-dC5-C1Ac) (peptide) | 70.2 nM |
| cyclo(Phe4F-R-4Pal-L-TyrOMe-Nva-NMeF-dC6-C1Ac) (peptide) | 369 nM |
| cyclo(Phe4F-R-4Pal-hIle-TyrOMe-Nva-NMeF-dC-C1Ac) (peptide) | 2060 nM |
| cyclo(Phe4F-R-LysN3-Nle-Y-Nle-NMeF-Cysteamine-C1Ac) (peptide) | 3530 nM |
| cyclo(Phe4NH2-Om-3Pal-cBuA-TyrOMe-Nle-NMe3Pal-daMeC1-C1Ac) (peptide) | 1060 nM |
| cyclo(TyrOMe-Orn~3Pal-cBuA-Phe2F-Nle-NMe3Pal-daMeC1-C1Ac) (peptide) | 2130 nM |
| cyclo(Y-Orn-3Pal-cBuA-TyrOMe-Nle-NMe3Pal-daMeC1-C1Ac) (peptide) | 659 nM |

The remaining lines, values ahead:

| SOS assay EC50 | Substance |
| --- | --- |
| 7270 nM | cyclo(C1Ac-F-R-3Pal-cBuA-Ape-Nle-NMe3Pal-C) (peptide) |
| 7790 nM | cyclo(F-6Quin4NH2-Phe4Gn-L-TyrOMe-Nle-NMeF-C1-C1Ac) (peptide) |
| 1230 nM | cyclo(F-IPG-d3Pal-cBuA-Phe2F-Nle-NMe3Pal-amBCP) (peptide) |
| 1.14 nM | cyclo(F-NH2IMNva-d3Pal-cBuA-Phe2F-Nle-NMe3Pal-amBCP) (peptide) |
| 753 nM | cyclo(F-NMeDabN3-3Pal-Nle-Phe2F-Nle-NMe3Pal-c3amCb1c) (peptide) |
| 4320 nM | cyclo(F-Nva-Phe4Gn-L-TyrOMe-Nle-NMeF-dC1-C1Ac) (peptide) |
| 370 nM | cyclo(F-R-3Pal-Nle-Phe2F-Nle-NMe3Pal-aMeC-C1Ac) (peptide) |
| 3070 nM | cyclo(F-R-3Pal-Nle-PraMe-Nle-NMe3Pal-aMeC1-C1Ac) (peptide) |
| 6390 nM | cyclo(F-R-3Pal-Nle-SerOMe-Nle-NMe3Pal-aMeC1-C1Ac) (peptide) |
| 117 nM | cyclo(F-R-3Pal-Nle-TyrOMe-Nle-NMeF-cBuAc) (peptide) |
| 3440 nM | cyclo(F-R-3Pal-Nle-TyrOMe-Nle-NMeF-cBuTE-C1Ac) (peptide) |
| 256 nM | cyclo(F-R-3Pal-Nle-TyrOMe-Nle-NMeF-cHxclacid4NH2) (peptide) |
| 949 nM | cyclo(F-R-3Pal-Nle-TyrOMe-Nle-NMeF-dbhcLeu) (peptide) |
| 526 nM | cyclo(F-R-3Pal-Nle-deHLeu-Nle-NMe3Pal-aMeC1-C1Ac) (peptide) |
| 298 nM | cyclo(F-R-3Pal-cBuA-Pra-Nle-NMeF-aMeC1-C1Ac) (peptide) |
| 238 nM | cyclo(F-R-3Pal-cBuA-TyrOMe-HagNMeHag-daMeC-C1Ac) (peptide) |
| 656 nM | cyclo(F-R-3Pal-cBuA~TyrOMe-Nle-NMeF-spiro54) (peptide) |

| SOS assay EC50 | Substance |
| --- | --- |
| 142 nM | cyclo(F-R-Phe4Gn-Nle-TyrOMe-Nle-NMeF-SamHex) (peptide) |
| 15.6 nM | cyclo(F-R-Phe4Gnc2-Nle-TyrOMe-Nle-NMeF-c3amCblc) (peptide) |
| 35.3 nM | cyclo(F-R-Phe4cPyrr-Nle-TyrOMe-Nle-NMeF-c3amCblc) (peptide) |
| 3.19 nM | cyclo(F-R-d3Pal-cBuA-Phe2F-Nle-NMe3Pal-amBCP) (peptide) |
| 387 nM | cyclo(F-R-d3Pal-cBuA-Phe2F-Nle-NMe3Pal-amBYA) (peptide) |
| 6820 nM | cyclo(F-R-d3Pal-cBuA-Phe2F-Nle-NMe3Pal-amOBCH) (peptide) |
| 37.8 nM | cyclo(F-R-d3Pal-cBuA-TyrOMe-Nle-NMeF-Smcysteamine-C1Ac) (peptide) |
| 503 nM | cyclo(F-R-hS-cBuA-Phe2F-Nle-NMeF-aMeC1-C1Ac) (peptide) |
| 2.69 nM | cyclo(FLac-NMeA-PyrimAla-cPrA-4Pal2F-hL-NMeF-amBCP) (peptide) |
| 3.72 nM | cyclo(FLac-NMeA~PyrimAla-cPrA-3Pal6F-hL-NMeF-amBCP) (peptide) |
| 8470 nM | cyclo(NMeF-NMeDabN3-3Pal-Nle-Phe2F-Nle-NMe3Pal-c3amCblc) (peptide) |
| 7760 nM | cyclo(NMeF-NMeNvalmid-3Pal-Nle-Phe2F-LysN3-NMe3Pal-c3amCb1c) (peptide) |
| 1460 nM | cyclo(NMeF-NMeNvalmid-3Pal-dNle-Phe2F-Nle-NMe3Pal-c3amCblc) (peptide) |
| 3750 nM | cyclo(Phe3F-R-4Pal-L-TyrOMe-Nva-NMeF-dC1-C1Ac) (peptide) |
| 3010 nM | cyclo(Phe4F-R-4Pal-L-TyrOMe-Nva-NMeF-Cysteamine-C1Ac) (peptide) |
| 432 nM | cyclo(Phe4F-R-4Pal-Nle-TyrOMe-Nle-NMeF-Cysteamine-C1Ac) (peptide) |
| 2770 nM | cyclo(Phe34F2-R-4Pal-L-TyrOMe-Nva-NMeF-dC1-C1Ac) (peptide) |
